Patent publication US20220177587A1, “METHODS AND USES OF VARIANT CD80 FUSION PROTEINS AND RELATED CONSTRUCTS” (Alpine Immune Sciences, Inc., priority 2018, published 2022)
Where a chain is given by its changes, count along the chain named. Names and notes keep the numbering of the source.

B1: M47L (protein)
chain: VIHVTKEVKEVATLSCGHNVSVEELAQTRIYWQKEKKMVLTMMSGDLNIWPEYKNRTIFDITNNLSIVILALRPSDEGTYECVVLKYEKDAFKREHLAEVTLSVKAD
B2: E35D/N48K/K89N (protein)
chain: B1 chain with E35D, L47M, N48K, K89N
B3: M47V/V68M (protein)
chain: B1 chain with L47V, V68M
B4: E35D/N48K (protein)
chain: B1 chain with E35D, L47M, N48K
B5: E35D/M47L/V68M (protein)
chain: B1 chain with E35D, V68M
B6: K89N (protein)
chain: B1 chain with L47M, K89N
B7: E35D/D46V/M47L/V68M/L85Q (protein)
chain: B1 chain with E35D, D46V, V68M, L85Q
B8: D46V/M47L/L85Q (protein)
chain: B1 chain with D46V, L85Q
B9: D46V/M47L/V68M (protein)
chain: B1 chain with D46V, V68M
B10: E35D/V68M/L85Q (protein)
chain: B1 chain with E35D, L47M, V68M, L85Q
B11: E35D/K89N (protein)
chain: B1 chain with E35D, L47M, K89N
B12: M47V/N48K/V68M (protein)
chain: B1 chain with L47V, N48K, V68M
B13: D46V/L85Q (protein)
chain: B1 chain with D46V, L47M, L85Q
B14: E35D/D46V/M47L/L85Q (protein)
chain: B1 chain with E35D, D46V, L85Q
B15: M47V (protein)
chain: B1 chain with L47V
B16: D46V/V68M (protein)
chain: B1 chain with D46V, L47M, V68M

What follows are molecules tested against T1, CD28 (Homo sapiens, UniProt P10747) (assay: Jurkat/IL2 + CHO/OKT3 +/- PD-L1 reporter assay: PD-L1-dependent CD28 costimulation). Settings: Table E21; Jurkat/IL2 + CHO/OKT3/PD-L1; 5.0 nM.
Format: cell-based
Set-up: host or cells: Jurkat cells expressing an IL-2-luciferase reporter
Method in brief: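 Jurkat reporter cells (100,000/well) preincubated 15 min at room temperature with test protein, then cocultured 5 h at 37 °C with CHO aAPCs bearing anti-CD3 scFv (OKT3) with or without PD-L1. Luciferase luminescence (RLU) read after lysis-substrate addition.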

Fold Increase over WT CD80-IgV-Fe [fold] | Molecule
4.6 | B1
6.3 | B2
4.8 | B3
5.1 | B4
6.5 | B5
1.0 | B6
6.2 | B7
5.2 | B8
6.3 | B9
4.4 | B10
2.5 | B11
5.8 | B12
3.0 | B13
4.2 | B14
3.9 | B15
2.5 | B16

Same assay, conditions: Table E21; Jurkat/IL2 + CHO/OKT3/PD-L1; CD80 Conc 5.0 nM

Relative Luciferase Units (RLU), CD80 Conc 5.0 nM [RLU] | Molecule
530 | B1
719 | B2
553 | B3
590 | B4
749 | B5
116 | B6
712 | B7
598 | B8
724 | B9
511 | B10
293 | B11
664 | B12
342 | B13
481 | B14
445 | B15
292 | B16

Each molecule was assayed against T1, CD28 (assay: Flow binding to Jurkat/IL2 reporter cells (CD28)). Settings: Table E19; Jurkats (CD28); 33.3 nM.
Set-up: host or cells: Jurkat cells expressing an IL-2-luciferase reporter
Method in brief: (§1)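 Fusion proteins bound to CHO cells stably expressing CTLA4 or PD-L1, or to Jurkat/IL2 reporter cells with endogenous CD28, for 45 min on ice after blocking in PBS/1% BSA. Detection with PE anti-human Fc by flow cytometry; PE MFI per cell type and binding EC50 determined.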

CD28 MFI at 33.3 nM | Molecule
309 | B1
411 | B2
328 | B3
194 | B4
1243 | B5
56.3 | B6
464 | B7
567 | B8
2183 | B9
76.2 | B10
236 | B11
641 | B12
131 | B13
268 | B14
68.7 | B15
556 | B16

Same assay, conditions: Table E19; MFI at 33.3 nM relative to WT CD80 ECD-Fc (Abcam)

CD28 Fold change to WT CD80 [fold] | Molecule
0.4 | B1
0.6 | B2
0.5 | B3
0.3 | B4
1.8 | B5
0.1 | B6
0.7 | B7
0.8 | B8
3.1 | B9
0.1 | B10
0.3 | B11
0.9 | B12
0.2 | B13
0.4 | B14
0.1 | B15
0.8 | B16

Each molecule was assayed against huCTLA4 (Homo sapiens, UniProt P16410) (assay: Flow binding to CHO cells stably expressing CTLA4). Settings: Table E19; CHO cells stably expressing CTLA4; 33.3 nM.
Sequence of huCTLA4 (P16410 36-223): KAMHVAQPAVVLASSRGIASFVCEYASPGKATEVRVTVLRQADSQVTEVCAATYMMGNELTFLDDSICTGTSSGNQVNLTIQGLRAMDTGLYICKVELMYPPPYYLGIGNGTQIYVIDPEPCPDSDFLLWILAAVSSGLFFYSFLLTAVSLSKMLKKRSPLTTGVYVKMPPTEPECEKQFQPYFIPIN
Set-up: huCTLA4 and huPD-L1, full-length mammalian surface expression constructs were generated; expressed in transfected cells; host or cells: CHO cells, lentiviral transduction, sorted to >98% purity
Method in brief: as §1

CTLA4 MFI at 33.3 nM | Molecule
30774 | B1
34727 | B2
7282 | B3
41325 | B4
28603 | B5
944 | B6
26207 | B7
40153 | B8
34688 | B9
42761 | B10
21755 | B11
34612 | B12
41896 | B13
38150 | B14
33341 | B15
5334 | B16

Same assay, conditions: Table E19; MFI at 33.3 nM relative to WT CD80 ECD-Fc (Abcam)

CTLA4 Fold change to WT CD80 [fold] | Molecule
0.8 | B1
0.9 | B2
0.2 | B3
1.0 | B4
0.7 | B5
0.0 | B6
0.6 | B7
1.0 | B8
0.9 | B9
1.1 | B10
0.5 | B11
0.9 | B12
1.0 | B13
0.9 | B14
0.8 | B15
0.1 | B16

Each molecule was assayed against huPD-L1 (Homo sapiens, UniProt Q9NZQ7) (assay: Flow binding to CHO cells stably expressing PD-L1). Settings: Table E19; CHO cells stably expressing PD-L1; 33.3 nM.
Sequence of huPD-L1 (Q9NZQ7 19-290): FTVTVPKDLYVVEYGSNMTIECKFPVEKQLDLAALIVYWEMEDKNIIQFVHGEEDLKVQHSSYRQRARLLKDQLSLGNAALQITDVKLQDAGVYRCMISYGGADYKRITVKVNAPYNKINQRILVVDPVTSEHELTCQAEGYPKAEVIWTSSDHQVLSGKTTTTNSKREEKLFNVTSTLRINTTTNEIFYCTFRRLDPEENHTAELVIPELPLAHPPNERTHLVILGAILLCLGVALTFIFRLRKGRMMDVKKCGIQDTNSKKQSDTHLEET
Set-up: huCTLA4 and huPD-L1, full-length mammalian surface expression constructs were generated; expressed in transfected cells; host or cells: CHO cells, lentiviral transduction, sorted to >98% purity
Method in brief: as §1

PD-L1 MFI at 33.3 nM | Molecule
1895 | B1
5766 | B2
4294 | B3
6545 | B4
27896 | B5
52.8 | B6
28418 | B7
5976 | B8
28020 | B9
5971 | B10
757 | B11
14464 | B12
2197 | B13
7523 | B14
2317 | B15
2271 | B16

Same assay, conditions: Table E19; MFI at 33.3 nM relative to WT CD80 ECD-Fc (Abcam)

PD-L1 Fold change to WT CD80 [fold] | Molecule
14.8 | B1
45.0 | B2
33.5 | B3
51.1 | B4
217.9 | B5
0.4 | B6
222.0 | B7
46.7 | B8
218.9 | B9
46.6 | B10
5.9 | B11
113.0 | B12
17.2 | B13
58.8 | B14
18.1 | B15
17.7 | B16

Same assay, conditions: Table E19; ratio of MFI at 33.3 nM

Ratio of PDL1:CD28 | Molecule
6.1 | B1
14.0 | B2
13.1 | B3
33.7 | B4
22.4 | B5
0.9 | B6
61.2 | B7
10.5 | B8
12.8 | B9
78.4 | B10
3.2 | B11
22.6 | B12
16.8 | B13
28.1 | B14
33.7 | B15
4.1 | B16
